Patent US20050181362A1 (published 2005)

B1: GR LBD (F602S) 521-777 (receptor)
chain: GSVPATLPQLTPTLVSLLEVIEPEVLYAGYDSSVPDSTWRIMTTLNMLGGRQVIAAVKWAKAIPGFRNLHLDDQMTLLQYSWMSLMAFALGWRSYRQSSANLLCFAPDLIINEQRMTLPCMYDQCKHMLYVSSELHRLQVSYEEYLCMKTLLLLSSVPKDGLKSQELFDEIRMTYIKELGKAIVKREGNSSQNWQRFYQLTKLLDSMHEVVENLLNYCFQTFLDKTMSIEFPEMLAEIITNQIPKYSNGNIKKLLFHQK
notes: also called GR(521-777) F602S; cleaved GR LBD

Experiments:
GR LBD (F602S) 521-777 = molecular target: B1; experiment: co-crystallization
Method: The GR/TIF2/DEX crystals were grown at room temperature in hanging drops containing 3.0 ul of the above protein-ligand solutions, and 0.5 ul of well buffer (50 mM HEPES, pH 7.5-8.5 (preferred pH range is 8.0 to 8.5), and 1.7-2.3M ammonium formate). Crystals were also obtained with mixing of the above protein solution and the well buffer at various volume ratios. Crystals appeared overnight and continously grew to a size up to 300 micron within a week. Before data collection, crystals were transiently mixed with the well buffer that contained an additional 25% glycerol, and were then flash frozen in liquid nitrogen.

X-ray crystal structure = molecular target: the molecule itself; experiment: X-ray crystal structure

Row | Binder | binding result (GR LBD (F602S) 521-777) | binding result (X-ray crystal structure)
1 | QEPVSPKKKENALLRYLLDKDDTKD (Free peptide used in solution for the stability study and for co-crystallization; No biotin is mentioned for these uses; also called TIF2 peptide; TIF2 fragment) [TIF2 732-756 peptide] | binds | –
2 | B1 | – | binds
